± gives the standard error. This sample holds only a part of the variants without activity.
B1: glmS ribozyme (parent)
chain: AUAAAAGCGCCAGAACUACAGAAAUGUAGUUGACGAGGAGGAGGUUUAUCGAAUUUUCGGCGGAUGCCUCCAAA

Columns and labels:
Details in all cases: with glucosamine-6-phosphate
glucosamine-6-phosphate [1] = variants of: B1; test: self-cleavage kobs at 640 uM GlcN6P; higher = faster cleavage; RNA array
Outline: (§1)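 Tracking of barcoded ribozyme variants used a hybridised Cy3 probe at 37 °C, after in situ transcription by E. coli RNA polymerase on sequenced MiSeq chips. The flowed solution held 40 μM to 10 mM glucosamine-6-phosphate in HEPES/KCl/Mg(OAc)2 buffer, and imaging ran over ~14 h. kobs was taken from exponential decay fits of normalised per-tile medians, and kcat and KM from weighted Michaelis–Menten fits.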

glucosamine-6-phosphate [2] = variants of: B1; test: self-cleavage kobs at 2500 uM GlcN6P; higher = faster cleavage; RNA array
Outline: as §1

glucosamine-6-phosphate [3] = variants of: B1; test: self-cleavage kobs at 10000 uM GlcN6P; higher = faster cleavage; RNA array
Outline: as §1

Variant | self-cleavage kobs at 640 uM GlcN6P (glucosamine-6-phosphate [1]) [s⁻¹] | self-cleavage kobs at 2500 uM GlcN6P (glucosamine-6-phosphate [2]) [s⁻¹] | self-cleavage kobs at 10000 uM GlcN6P (glucosamine-6-phosphate [3]) [s⁻¹]
C8G G38U C68A | < 1e-05 |  | 
C10G A12U U56G C71U | < 1e-05 |  | 
G9A C10G G44A C70U | < 1e-05 | < 1e-05 | 
G9U A12G C61A | 3.47e-05 ± 1.5e-05 | 8.52e-05 ± 1.9e-05 | 
G9C A12C | < 1e-05 | < 1e-05 | < 1e-05
G9A G40C G44A G59U | < 1e-05 |  | 
G9U G29A U46A G51U C67U | < 1e-05 | < 1e-05 | 
C8U A14G A39G A53U U54G G63A | < 1e-05 | < 1e-05 | 
C8U U46G C61A C68U | < 1e-05 |  | 
C8G G32U G40A G44C C58U | < 1e-05 | < 1e-05 | 
G9U G62C C67U | < 1e-05 | < 1e-05 | 
G9C A15C G32U G40C G66C | < 1e-05 |  | 
G9U U47A | < 1e-05 | < 1e-05 | 
G9A A12U U49A | < 1e-05 | < 1e-05 | 
G9U C61A C70G | 4.55e-05 ± 2.1e-05 |  | 
C8G U55C C71A | < 1e-05 | < 1e-05 | 
C8G G32U U47G C67G C68G | 0.000105 ± 3.3e-05 | 4.39e-05 ± 2.1e-05 | 
G9A A14G G38U | < 1e-05 |  | < 1e-05
G9C G41U G44C | < 1e-05 |  | 
G9U C10G G13C A48C C50U | < 1e-05 | < 1e-05 | 
C8G G41U C61A | < 1e-05 |  | 
C10A U54G U65C | < 1e-05 |  | 
G9U A14C A53U G62A C67G | < 1e-05 | < 1e-05 | 

Variant | self-cleavage kobs at 640 uM GlcN6P (glucosamine-6-phosphate [1]) [s⁻¹] | self-cleavage kobs at 2500 uM GlcN6P (glucosamine-6-phosphate [2]) [s⁻¹] | self-cleavage kobs at 10000 uM GlcN6P (glucosamine-6-phosphate [3]) [s⁻¹]
G9A A42C G44A | < 1e-05 | < 1e-05 | 
C10A A15G G32U C70G | 0.000197 ± 7.6e-05 |  | 
G9C A64U | < 1e-05 |  | 
G9C A15C A64C C68G | < 1e-05 |  | 
G9C G43U U55G A64G | < 1e-05 | < 1e-05 | 
G9U U56A G63U A64U | < 1e-05 |  | 
G9U G51U C71U | < 1e-05 |  | 
G9C G29C A52U C70U | < 1e-05 | < 1e-05 | < 1e-05
C8U C50G G51U U56C | < 1e-05 |  | 
C8G C58U G59C C61U C67G | < 1e-05 | < 1e-05 | 
C8U C11U U55A G62A | < 1e-05 | < 1e-05 | 
C10A U31A U56C | < 1e-05 | < 1e-05 | < 1e-05
C8G G41U A48U C70U | < 1e-05 |  | 
C8U A42G A48C | < 1e-05 | < 1e-05 | 
C10A U69A | 0.00013 ± 1.9e-05 | 3.89e-05 ± 1.5e-05 | 
C8U A15C A33U G37C C71G | 5.18e-05 ± 2.5e-05 |  | 
C8U G40C C71U | < 1e-05 | < 1e-05 | 
C10A A12C G63C C71G | < 1e-05 |  | 
G9U C16G G29U G40U G41A G66U | < 1e-05 | < 1e-05 | 
C8U U31G C34U U47A | < 1e-05 |  | 
C8U A64G C67G | < 1e-05 |  | 
C10A G63A U69A C71U | 0.000215 ± 6.3e-05 |  | 
C8U U31G G35U G44A C70U | < 1e-05 | < 1e-05 | 

Variant | self-cleavage kobs at 640 uM GlcN6P (glucosamine-6-phosphate [1]) [s⁻¹] | self-cleavage kobs at 2500 uM GlcN6P (glucosamine-6-phosphate [2]) [s⁻¹] | self-cleavage kobs at 10000 uM GlcN6P (glucosamine-6-phosphate [3]) [s⁻¹]
G9U G35A G44U A53C C71G | < 1e-05 | < 1e-05 | 
C10A A39U A52G | < 1e-05 | < 1e-05 | < 1e-05
G9U G32C C34G C58U C68G | 0.000182 ± 7.9e-05 |  | 
C8G G13A U56C | < 1e-05 |  | 
C8G G41A A52U | < 1e-05 | < 1e-05 | 
G9U A14C A64U C68A | < 1e-05 | < 1e-05 | 
C10A G43C A53U | < 1e-05 | < 1e-05 | 
C8U A12U G51U | < 1e-05 | < 1e-05 | 
G9A G37A U46C | < 1e-05 |  | 
C10A A36U G62A | < 1e-05 |  | 
C10G A12C G13A A14G A39U C70G | < 1e-05 |  | 
C8U G29A U31A G37U A52G C71G | 0.0078 ± 0.0033 |  | 
G9A G63U C70U | < 1e-05 |  | 
G9A U47G U49G | < 1e-05 |  | 
C8G U31G C50G | 7.77e-05 ± 3.6e-05 |  | 
G9A A15U C16A G63C C68U | < 1e-05 |  | 
G9U U49G A52C A64C | < 1e-05 |  | 
C10A A33G U45C G66A C70U | < 1e-05 | < 1e-05 | 
G9C A39U A42C U56G | < 1e-05 |  | 
G9U G44C C58A | < 1e-05 |  | 
C10A C67G C70A | 0.000293 ± 9.2e-05 |  | 

Source: the supplement of paper PMC7125110
